Results published in publication PMC8379990, “Structure of autoinhibited Akt1 reveals mechanism of PIP3-mediated activation” (Proceedings of the National Academy of Sciences of the …, 2021).

Molecular target: T1, C-terminal tail peptide (FITC-SMEAVDSERRPHFPQFSYSASGTA) (human, C460A (from the letters against P31749, from memory; not stated by the paper) …, FITC (fluorescein) on the N-terminus; unphosphorylated)
T1 construct: residues 457 to 480 of human Akt1 (the C-terminal tail residues missing in Akt1^ΔC); The methods call it 'the C-terminal 35 amino acids of Akt1', but the printed peptide has 24 residues; also called fluorescein-labeled peptide (unphosphorylated)
T1 peptide: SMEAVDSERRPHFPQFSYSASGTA
Experiment: fluorescence polarisation; fluorescence anisotropy; reverse titration of 200 to 250 µM Akt1^ΔC in buffer with 100 nM fluorescein-labeled peptide; 20 °C, 20 mM Tris pH 8.0, 100 mM NaCl, 1 mM TCEP; one-site binding model; three independent titrations; saturation not reached
Conditions: both partners purified

B1: Akt1 1 to 456 (Akt1^ΔC) (domain or fragment)
chain: MNDVAIVKEGWLHKRGEYIKTWRPRYFLLKNDGTFIGYKERPQDVDQREAPLNNFSVAQCQLMKTERPRPNTFIIRCLQWTTVIERTFHVETPEEREEWTTAIQTVADGLKKQEEEEMDASAEHTDMEVSLAKPKHRVTMNEFEYLKLLGKGTFGKVILVKEKATGRYYAMKILKKEVIVAKDEVAHTLTENRVLQNSRHPFLTALKYSFQTHDRLCFVMEYANGGELFFHLSRERVFSEDRARFYGAEIVSALDYLHSEKNVVYRDLKLENLMLDKDGHIKITDFGLCKEGIKDGATMKTFCGTPEYLAPEVLEDNDYGRAVDWWGLGVVMYEMMCGRLPFYNQDHEKLFELILMEEIRFPRTLGPEAKSLLSGLLKKDPKQRLGGGSEDAKEIMQHRFFAGIVWQHVYEKKLSPPFKPQVTSETDTRYFDEEFTAQMITITPPDQDD
modifications: phosphothreonine at T450 (stoichiometrically monophosphorylated, turn motif)
Kd: ~500 µM
